From patent US20200282035A1 (MILTENYI BIOTEC B V, published 2020)

T1: TSPAN8 (human, UniProt P19075 1-237)
T1 construct: whole, on cells
T1 sequence (looked up): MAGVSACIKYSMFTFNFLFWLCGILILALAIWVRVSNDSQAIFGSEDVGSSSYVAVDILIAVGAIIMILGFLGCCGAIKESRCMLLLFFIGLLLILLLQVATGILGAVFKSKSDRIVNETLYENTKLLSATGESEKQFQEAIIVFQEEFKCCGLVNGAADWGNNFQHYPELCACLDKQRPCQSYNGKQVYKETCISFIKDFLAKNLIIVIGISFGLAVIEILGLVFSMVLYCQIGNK

T2: CD318 (human, UniProt Q9H5V8 30-836)
T2 construct: whole, on cells
T2 sequence (looked up): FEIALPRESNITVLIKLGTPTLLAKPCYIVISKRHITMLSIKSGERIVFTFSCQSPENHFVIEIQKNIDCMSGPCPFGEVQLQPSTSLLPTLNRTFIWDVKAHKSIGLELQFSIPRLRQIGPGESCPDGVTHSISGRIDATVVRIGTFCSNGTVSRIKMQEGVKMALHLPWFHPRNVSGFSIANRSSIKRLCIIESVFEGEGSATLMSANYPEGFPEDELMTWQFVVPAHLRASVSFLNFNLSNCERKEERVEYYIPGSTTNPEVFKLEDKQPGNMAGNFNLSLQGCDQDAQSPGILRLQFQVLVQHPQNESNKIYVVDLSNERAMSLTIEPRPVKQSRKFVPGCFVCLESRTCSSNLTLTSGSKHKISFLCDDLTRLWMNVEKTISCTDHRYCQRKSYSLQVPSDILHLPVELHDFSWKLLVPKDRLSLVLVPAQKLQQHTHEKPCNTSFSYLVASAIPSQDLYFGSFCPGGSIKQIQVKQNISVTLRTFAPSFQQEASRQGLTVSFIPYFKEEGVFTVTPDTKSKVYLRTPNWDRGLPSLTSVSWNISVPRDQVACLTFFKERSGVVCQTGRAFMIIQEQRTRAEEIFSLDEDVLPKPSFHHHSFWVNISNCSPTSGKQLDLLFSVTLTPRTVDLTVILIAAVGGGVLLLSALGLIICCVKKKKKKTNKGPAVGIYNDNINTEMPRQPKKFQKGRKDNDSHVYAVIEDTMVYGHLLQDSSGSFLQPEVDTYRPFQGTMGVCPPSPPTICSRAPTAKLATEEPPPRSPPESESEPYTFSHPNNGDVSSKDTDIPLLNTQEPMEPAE


What was measured:
TSPAN8 = target: T1, TSPAN8; experiment: antibody used for staining of human pancreatic cancer cells (flow cytometry, immunohistochemistry; Example 1); told in words only
CD318 = target: T2, CD318; experiment: as above

binding result (TSPAN8) | binding result (CD318) | Binder
binds | – | TSPAN8 specific antibody (antibody, V domains shown, also called TSPAN8 VH) VH: EVKLLESGGGLVQPGGSMRLSCAASGFTFTDFYMNWIRQPAGKAPEWLGFIRNKASGYTTEYNPSVKGRFTISRDNTQNMLYLQMNTLRAEDTATYYCARAHSYYGYDYFDYWGQGVMVTVSS VL: DIQMTQSPASLSASLEEIVTITCQASQDIGNWLSWYQQKPGKSPQLLIYGATSLADGVPSRFSGSRSGTQYSLKISRLQVEDIRIYYCLQAYSAPWTFGGGTKLELK
– | binds | CD318 specific antibody (antibody, V domains shown, also called CD318 VH) VH: EVQLQQSGAELVRPGALVKLSCKASGFNIKDYYIHWVKQRPEQGLEWIGWIDPENGHTIYDPKFQGKASITADTSSNTAYLQLSSLTSEDTAVYYCARLTGTTYAMDYWGQGTSVTVSS VL: DIVMTQSHKFMSTSVGDRVSITCKASQDVSTAVAWYQQKSGQSPKLLIYWASTRHTGVPDRFTGSGSGTDYTLTISSVQAEDLALYYCQQHYSTPYTFGGGTKLEIK
